Data as given in patent US20260104381, “ELECTRODEPOSITED METAL MODIFIED LASER SCRIBED GRAPHENE ELECTRODE AND METHOD” (KING ABDULLAH UNIVERSITY OF SCIENCE AND TECHNOLOGY, published 2026).

Target: HER2 (human epidermal growth factor receptor 2) (Homo sapiens, UniProt P04626 P04626:23-652)
Test: electrochemical SWV aptasensor; 0.1-200 ng/mL HER2 in 10 mM PBS pH 7.4, 1 h; MCH/BSA blocked; LOD 0.008 ng/mL; also detected in spiked undiluted human serum; protein source not stated
Settings: label: immobilized via thiol on gold nanostructured laser-scribed graphene electrode
Description: The concentrated Mercaptohexanol (MCH) solution was first prepared in ultrapure water and then further diluted in 10 mM PBS (pH 7.4). 4 μM of DNA aptamer 410 was mixed with 20 μM of MCH 412 prepared with 10 mM PBS (pH 7.4) to obtain a homogenized solution. As the next step, 6 μL from this mixture was placed in step 402 onto the LSG-AuNS modified working electrode 104 and incubated for 16 h, as shown in FIG. 4B. The MCH 412 covers a first part of the surface of the nanostructure 110 while the aptamer 410 covers a second part of the surface of the nanostructure 110. However, a third part of the surface of the nanostructure 110 is not covered by either of the MCH or the aptamer. The LSG-AuNS electrode surface was cleaned with 10 mM PBS (pH 7.4) to remove the excess of aptamer molecules 410 and MCH 412. The aptasensor was incubated in step 405 in 0.1 mg/mL of BSA solution 414 in 10 mM PBS (pH 7.4) for 45 min to cover a third part of the surface of the nanostructure 110, to reduce non-specific adsorption, as illustrated in FIG. 4C. In one application, the sum of the surfaces of the first to third parts covers the entire surface of the nanostructure 110. However, in another application, the sum of the first to third parts cover less than the entire surface of the nanostructure 110. Finally, the aptamer modified electrode 104 was washed with 10 mM PBS (pH 7.4) for at least five times. […]

B1: thiol-modified anti-Her-2 DNA aptamer (APT) (ssDNA)
DNA: AACCGCCCAAATCCCTAAGAGTCTGCACTTGTCATTTTGTATATGTATTTGGTTTTTGGCTCTCACAGACACACTACACACGCACA
modifications: 5'-ThiC6 (thiol C6 linker)
- binding result: binds
